Reference: publication PMC7152990, “Plasmon-Emitter Hybrid Nanostructures of Gold Nanorod-Quantum Dots with Regulated Energy Transfer as a Universal Nano-Sensor for One-Step Biomarker Detection”

Biological target: T1, alpha fetoprotein (AFP) (human, UniProt P02771 19-609)
T1 sequence: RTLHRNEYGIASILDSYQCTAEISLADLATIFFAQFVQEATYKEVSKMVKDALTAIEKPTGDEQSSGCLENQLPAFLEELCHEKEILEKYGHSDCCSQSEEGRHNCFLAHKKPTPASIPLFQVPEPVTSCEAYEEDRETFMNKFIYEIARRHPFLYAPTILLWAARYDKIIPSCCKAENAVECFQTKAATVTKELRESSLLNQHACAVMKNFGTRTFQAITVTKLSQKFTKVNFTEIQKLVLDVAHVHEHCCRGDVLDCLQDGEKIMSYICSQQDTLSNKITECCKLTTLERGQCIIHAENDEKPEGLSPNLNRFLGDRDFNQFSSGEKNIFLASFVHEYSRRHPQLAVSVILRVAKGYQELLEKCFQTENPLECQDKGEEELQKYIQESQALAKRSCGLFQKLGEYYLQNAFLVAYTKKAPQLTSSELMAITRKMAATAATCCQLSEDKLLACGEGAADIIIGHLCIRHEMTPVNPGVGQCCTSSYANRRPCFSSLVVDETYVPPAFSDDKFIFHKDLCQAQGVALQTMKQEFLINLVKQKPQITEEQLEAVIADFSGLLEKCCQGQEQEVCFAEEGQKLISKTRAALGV
Experiment: plasmon-regulated FRET / LSPR shift aptasensor (Au NR-QDs); 20 ng/mL AFP; LSPR redshift 1.2 nm, fluorescence decrease ~18%; sensor LOD 0.30 ng/mL (not a Kd); aptamer immobilized on Au NR-QDs via glutaraldehyde (room temperature, 2 h, water); AFP binding buffer, pH and temperature not given in the material
Conditions: protein: commercial

B1: AFP aptamer (ssDNA)
DNA: GTGACGCTCCTAACGCTGACTCAGGTGCAGTTCTCGACTCGGTCTTGATGTGGGTCCTGTCCGTCCGAACCAATC
modifications: 5'-NH2
- binding result: binds
